Data: PMC5992459, “Novel DNA Aptamers that Bind to Mutant Huntingtin and Modify Its Activity”

Tests used:
[1] = biological target: endogenous huntingtin from HD60i4 NPC (CAG60/18) (Homo sapiens) (UniProt P42858); assay: streptavidin pull-down; details: NPC lysate; ELISA: 10 mM Tris-HCl pH 8.0, 0.15 M NaCl (TBS), 2 mg/mL BSA block, 1 pmol huntingtin/well, 50 pmol biotin-aptamer, 2 h (RT for coating/blocking); caspase-6 …
[2] = biological target: Q78-huntingtin caspase-6 C-terminal fragment (270 kDa) (Homo sapiens, UniProt P42858 585-3142); assay: caspase-6 digestion of complex, anti-biotin immunoblot; ELISA: 10 mM Tris-HCl pH 8.0, 0.15 M NaCl (TBS), 2 mg/mL BSA block, 1 pmol huntingtin/well, 50 pmol biotin-aptamer, 2 h (RT for coating/blocking); caspase-6 mapping: aptamer:huntingtin 10:1, 2 h RT, spin column; SLM: 5:1, 2 h RT; details: protein: recombinant; label: 5'-biotin; intramolecular G4
Q78-huntingtin caspase-6 C-terminal fragment (270 kDa), sequence (P42858 585-3142): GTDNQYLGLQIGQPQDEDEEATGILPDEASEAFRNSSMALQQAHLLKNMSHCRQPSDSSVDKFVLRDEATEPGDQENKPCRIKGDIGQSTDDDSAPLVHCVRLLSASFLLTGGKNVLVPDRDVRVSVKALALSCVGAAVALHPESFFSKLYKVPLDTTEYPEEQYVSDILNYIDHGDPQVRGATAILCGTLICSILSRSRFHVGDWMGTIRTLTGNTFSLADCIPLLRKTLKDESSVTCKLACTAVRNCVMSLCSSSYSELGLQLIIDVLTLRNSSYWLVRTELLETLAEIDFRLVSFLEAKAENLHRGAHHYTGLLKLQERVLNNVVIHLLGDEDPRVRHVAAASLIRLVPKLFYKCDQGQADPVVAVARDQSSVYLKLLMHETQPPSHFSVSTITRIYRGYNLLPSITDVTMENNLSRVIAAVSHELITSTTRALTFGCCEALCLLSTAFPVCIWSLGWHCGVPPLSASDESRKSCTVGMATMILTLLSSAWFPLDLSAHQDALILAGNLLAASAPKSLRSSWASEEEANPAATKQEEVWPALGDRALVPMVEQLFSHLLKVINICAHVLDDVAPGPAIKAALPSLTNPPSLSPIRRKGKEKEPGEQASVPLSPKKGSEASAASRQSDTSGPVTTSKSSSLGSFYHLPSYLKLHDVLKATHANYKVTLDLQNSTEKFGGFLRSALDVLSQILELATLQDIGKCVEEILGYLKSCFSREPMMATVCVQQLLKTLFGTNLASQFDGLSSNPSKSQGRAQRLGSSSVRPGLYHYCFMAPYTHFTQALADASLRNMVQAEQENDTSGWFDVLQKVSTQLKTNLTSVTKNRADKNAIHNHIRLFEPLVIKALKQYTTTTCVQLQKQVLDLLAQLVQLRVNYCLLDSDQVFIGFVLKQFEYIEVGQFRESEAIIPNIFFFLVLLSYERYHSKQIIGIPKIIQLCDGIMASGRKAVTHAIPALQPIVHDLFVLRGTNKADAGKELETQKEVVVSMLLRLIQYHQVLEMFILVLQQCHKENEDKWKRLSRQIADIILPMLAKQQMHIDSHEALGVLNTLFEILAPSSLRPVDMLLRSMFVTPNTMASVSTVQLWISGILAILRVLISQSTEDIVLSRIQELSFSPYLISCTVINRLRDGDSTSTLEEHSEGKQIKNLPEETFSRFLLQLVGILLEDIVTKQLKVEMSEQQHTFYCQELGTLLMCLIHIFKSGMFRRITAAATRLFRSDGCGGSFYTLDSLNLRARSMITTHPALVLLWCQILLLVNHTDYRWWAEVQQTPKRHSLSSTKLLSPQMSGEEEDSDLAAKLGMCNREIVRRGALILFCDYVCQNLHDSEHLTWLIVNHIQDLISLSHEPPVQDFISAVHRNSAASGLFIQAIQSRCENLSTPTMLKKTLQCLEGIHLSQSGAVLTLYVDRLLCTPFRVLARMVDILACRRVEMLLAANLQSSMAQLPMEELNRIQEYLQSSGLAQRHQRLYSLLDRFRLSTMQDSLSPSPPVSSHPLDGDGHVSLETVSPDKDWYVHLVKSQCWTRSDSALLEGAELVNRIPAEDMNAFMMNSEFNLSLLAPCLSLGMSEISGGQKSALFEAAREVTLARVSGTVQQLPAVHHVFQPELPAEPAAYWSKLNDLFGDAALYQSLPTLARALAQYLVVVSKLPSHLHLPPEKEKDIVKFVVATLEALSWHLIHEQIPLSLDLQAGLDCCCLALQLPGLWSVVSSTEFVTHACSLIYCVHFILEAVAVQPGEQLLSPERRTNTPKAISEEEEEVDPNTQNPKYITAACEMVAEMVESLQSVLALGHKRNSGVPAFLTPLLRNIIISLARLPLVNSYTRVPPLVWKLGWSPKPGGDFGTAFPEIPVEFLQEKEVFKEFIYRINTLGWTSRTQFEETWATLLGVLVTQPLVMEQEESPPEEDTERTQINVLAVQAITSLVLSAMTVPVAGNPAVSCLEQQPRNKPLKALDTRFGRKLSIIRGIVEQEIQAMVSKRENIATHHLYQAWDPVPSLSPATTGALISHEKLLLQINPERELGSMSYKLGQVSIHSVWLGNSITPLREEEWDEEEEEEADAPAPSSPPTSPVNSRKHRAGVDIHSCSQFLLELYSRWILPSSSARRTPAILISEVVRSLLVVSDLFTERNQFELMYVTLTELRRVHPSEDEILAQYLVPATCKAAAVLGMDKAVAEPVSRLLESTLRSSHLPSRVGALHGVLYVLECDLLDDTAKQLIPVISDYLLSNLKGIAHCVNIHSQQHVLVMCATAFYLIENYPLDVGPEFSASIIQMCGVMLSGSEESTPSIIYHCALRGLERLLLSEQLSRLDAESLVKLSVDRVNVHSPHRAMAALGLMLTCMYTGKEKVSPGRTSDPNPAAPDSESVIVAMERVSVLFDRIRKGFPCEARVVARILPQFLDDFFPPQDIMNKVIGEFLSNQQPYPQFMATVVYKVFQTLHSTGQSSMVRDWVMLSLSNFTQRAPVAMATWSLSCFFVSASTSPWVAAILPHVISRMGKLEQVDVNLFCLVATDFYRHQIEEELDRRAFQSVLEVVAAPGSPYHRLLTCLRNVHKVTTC

Molecule: GGGAGGGAGGGAGGGAGGGAGGGAGGGAGGGAGGGA [MS3]
- binding signal (fold vs HD17m8) [1]: 3.6

Molecule: AGGGGTGGGGAGGGGAGGGGA (structured_DNA) [MS2]
- binding result [2]: binds

Molecule: TGGGGAGGGGAGGGGCGGGGT (structured_DNA) [MS4]
- binding result [2]: binds

Molecule: AGGGGTGGGGAGGGGTGGGGA (structured_DNA) [MS1]
- binding result [2]: binds

Molecule: GGGAGGGAGGGAGGGAGGGAGGGAGGGAGGGAGGGA (structured_DNA) [MS3]
- binding result [2]: binds
